Paper PMC4264339 (Virology Journal, 2014)

What was measured:
[1] = target: HA protein on FJ13 virus (A/duck/Fujian/13/2002, H5N1), virus particles (Influenza A virus A/duck/Fujian/13/2002 …, UniProt Q9Q0U6, strain); experiment: ELISA; conditions: one partner purified
[2] = target: HA protein of FJ13 virus in infected MDCK cells (Influenza A virus A/duck/Fujian/13/2002 …, UniProt Q9Q0U6, strain); experiment: immunostaining of cells or tissue; conditions: partners not purified

B1: scFv3 secreted from DF-1 cells, c-Myc tagged (scFv, V domains shown)
VH: AVTLDESGGGLQTPGGALSLVCKASGFTFSSYDMYWVRQAPGKGLEFVAIINSGGSTSYYASAVKGRATISRDNGQSTVRLQLNNLRADDTGTYYCAKGPSAIDAWGHGTEVIVSS
VL: ALTQPSSVSANPGETVKITCSGGSSTYGYSWHQQKSPGSAPVTVVYSNDERPSDIPSRFSGSKSGSTGTLTITGVQADDEAIYYCGTYGSTDSGYVGIFGARTTLTVL
binding result [1]: binds | binding result [2]: binds
